Drawing on the supplement of paper PMC10567573, this text covers protein stability index for 94 variants.

B1: PCDHGA10 (parent)
chain: FGIEIEVTDINDNAPKFQAENLDV
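Also: lentivirally expressed fusions sorted by FACS into six bins by GFP to DsRed ratio, PSI derived from sequencing read proportions per bin multiplied by bin number.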

The data set covers variants of B1. As to the kind of experiment: protein stability index of a GFP-peptide fusion (GPS, HEK-293T) (PSI 1-6); higher = more stable. Conditions: c terminus: a fixed tail appended.
Take FGIEIEVTDINDNAPKFQAENLCV [D23C]: the protein stability index turned out to be 1.82.
On to FGIEIEVTDINDNAPKFQAENLAV [D23A], for which the protein stability index was found to be 2.3.
For FGIEIEVTDINDNAPKFQAENLVV [D23V] the value was 2.56; for FGIEIEVTDINDNAPKFQAENLKV [D23K], 2.08.
Regarding FGIEIEVTDINDNAPKFQAENLWV [D23W], the protein stability index amounted to 1.46.
Then FGIEIEVTDINDNAIKFQAENLDV [P15I], with 2.25; and FGIEIEVTDINDNATKFQAENLDV [P15T], with 3.41.
Then FGIEIEVTDINDNALKFQAENLDV [P15L], with 2.41; and FGIEIEVTDINDNAMKFQAENLDV [P15M], with 2.66.
Regarding FGIEIEVTDINDNAPKGQAENLDV [F17G], the protein stability index was determined as 3.94.
In the case of FGIEIEVTDINDNAPKCQAENLDV [F17C], the protein stability index stood at 3.73.
As to FGIEIEVTDINDNAPKYQAENLDV [F17Y], the protein stability index stood at 3.18.
Then FGIEIEVTDINDNAPKMQAENLDV [F17M], with 3.58; and LGIEIEVTDINDNAPKFQAENLDV [F1L], with 3.05; and GGIEIEVTDINDNAPKFQAENLDV [F1G], with 4.49.
For RGIEIEVTDINDNAPKFQAENLDV [F1R] the value was 4.17; for FGIEIEVTDINDNAPKFQASNLDV [E20S], 2.71; for FGIEIEVTDINDNAPKFQAVNLDV [E20V], 1.91.
For FGIEIEVTDINDNAPKFQATNLDV [E20T] the value was 2.34; for FGIEIEVTDINDNAPKFQAQNLDV [E20Q], 2.4.
Turning to FGIEIEVTDINDNAPKFQAENIDV [L22I], the protein stability index amounted to 3.02.
As to FGIEIEVTDINDNAPKFQAENYDV [L22Y], the protein stability index worked out at 2.83.
For FGIEIEVTDINDNAPKFQAENFDV [L22F] the value was 2.66; for FGIEIEVTDINDNAPKFQAENGDV [L22G], 3.97; for FGIEIEVTDINDNAPKFQGENLDV [A19G], 3.51.
Regarding FGIEIEVTDINDNAPKFQLENLDV [A19L], the protein stability index worked out at 2.
Regarding FGIEIEVTDINDNAPKFQIENLDV [A19I], the protein stability index is 2.26.
As for FGIEIEVTDINDNAPGFQAENLDV [K16G], the protein stability index amounted to 3.56.
On to FGIEIEVTDINDNAPAFQAENLDV [K16A], for which the protein stability index turned out to be 2.53.
FGIEIEVTDINDNAPPFQAENLDV [K16P]: the protein stability index came out at 3.31.
On to FGIEIEVTDINDNAPSFQAENLDV [K16S], for which the protein stability index was found to be 2.52.
Then FGIEIEVTDINDNAPDFQAENLDV [K16D], with 3.46.
As for FGIEIEVTDINDNAPNFQAENLDV [K16N], the protein stability index turned out to be 2.94.
Consider FGIECEVTDINDNAPKFQAENLDV [I5C], for which the protein stability index came to 4.28.
As for FGIEYEVTDINDNAPKFQAENLDV [I5Y], the protein stability index was 3.85.
For FGIEWEVTDINDNAPKFQAENLDV [I5W] the value was 3.05; for FGIEAEVTDINDNAPKFQAENLDV [I5A], 4.42.
Then FGIEPEVTDINDNAPKFQAENLDV [I5P], with 5.13; and FGIEREVTDINDNAPKFQAENLDV [I5R], with 4.79.
For FGIETEVTDINDNAPKFQAENLDV [I5T] the value was 5.08; for FGIEIEDTDINDNAPKFQAENLDV [V7D], 5.46.
FGIEIEKTDINDNAPKFQAENLDV [V7K]: the protein stability index was 4.21.
For the variant FHIEIEVTDINDNAPKFQAENLDV [G2H], the protein stability index came to 2.18.
Then FMIEIEVTDINDNAPKFQAENLDV [G2M], with 1.9; and FVIEIEVTDINDNAPKFQAENLDV [G2V], with 1.64.
For FYIEIEVTDINDNAPKFQAENLDV [G2Y] the value was 3; for FTIEIEVTDINDNAPKFQAENLDV [G2T], 1.78; for FQIEIEVTDINDNAPKFQAENLDV [G2Q], 2.09.
As to FNIEIEVTDINDNAPKFQAENLDV [G2N], the protein stability index is 1.9.
For FIIEIEVTDINDNAPKFQAENLDV [G2I] the value was 2.57.
As to FFIEIEVTDINDNAPKFQAENLDV [G2F], the protein stability index is 1.86.
As for FGIEIEVTDIGDNAPKFQAENLDV [N11G], the protein stability index was 2.66.
Then FGIEIEVTDINDNYPKFQAENLDV [A14Y], with 1.71; and FGIEIEVTDINDNCPKFQAENLDV [A14C], with 2.46.
FGIEIEVTDINDNMPKFQAENLDV [A14M]: the protein stability index is 2.42.
For the variant FGIEIEVTDINDNAPKFQAEVLDV [N21V], the protein stability index came out at 2.33.
For FGIEIEVTDINDNAPKFQAEMLDV [N21M] the value was 2.42; for FGIEIEVTDINDNAPKFQAETLDV [N21T], 2.89.
On to FGIEIEVTDINDNAPKFQAESLDV [N21S], for which the protein stability index turned out to be 2.54.
Turning to FGIEIEVTDINDNAPKFQAEELDV [N21E], the protein stability index turned out to be 3.46.
For FGIEIEVTDINDNAPKFQAEFLDV [N21F] the value was 1.84; for FGIEIEVTDMNDNAPKFQAENLDV [I10M], 3.28.
Then FGIEIEVTDCNDNAPKFQAENLDV [I10C], with 3.4; and FGIEIEVTDYNDNAPKFQAENLDV [I10Y], with 2.81.
Then FGIEIEVTDHNDNAPKFQAENLDV [I10H], with 4.04; and FGIEIEVTDTNDNAPKFQAENLDV [I10T], with 3.28; and FGIEIEVVDINDNAPKFQAENLDV [T8V], with 2.08.
In the case of FGIEIEVHDINDNAPKFQAENLDV [T8H], the protein stability index was 2.78.
For FGIEIEVWDINDNAPKFQAENLDV [T8W] the value was 2.27; for FGIEIEVFDINDNAPKFQAENLDV [T8F], 1.68; for FGFEIEVTDINDNAPKFQAENLDV [I3F], 2.71.
For FGSEIEVTDINDNAPKFQAENLDV [I3S] the value was 5.2; for FGVEIEVTDINDNAPKFQAENLDV [I3V], 3.65; for FGIEIEVTKINDNAPKFQAENLDV [D9K], 2.45.
For FGIEIEVTSINDNAPKFQAENLDV [D9S] the value was 1.85.
FGIEIEVTDINDNAPKFQAENLDK [V24K]: the protein stability index is 3.52.
Then FGIEIEVTDINDNAPKFQAENLDM [V24M], with 2.5.
Then FGIEIEVTDINDNAPKFQAENLDQ [V24Q], with 3.62; and FGIEIEVTDINDNAPKFQAENLDD [V24D], with 4.22.
For the variant FGIEIEVTDINDNAPKFQAENLDY [V24Y], the protein stability index was 2.93.
For FGIEIEVTDINKNAPKFQAENLDV [D12K] the value was 2.98; for FGIEIEVTDINQNAPKFQAENLDV [D12Q], 2.71.
FGIEIEVTDINDHAPKFQAENLDV [N13H]: the protein stability index worked out at 2.36.
Then FGIEIEVTDINDMAPKFQAENLDV [N13M], with 2.08; and FGIEIEVTDINDFAPKFQAENLDV [N13F], with 1.84; and FGIEIEVTDINDCAPKFQAENLDV [N13C], with 2.52.
For FGIEIEVTDINDYAPKFQAENLDV [N13Y] the value was 1.78; for FGIEIEVTDINDAAPKFQAENLDV [N13A], 2.85.
As for FGIEIEVTDINDDAPKFQAENLDV [N13D], the protein stability index worked out at 3.43.
With FGIEIEVTDINDNAPKFVAENLDV [Q18V], the protein stability index is 2.54.
For FGIEIEVTDINDNAPKFHAENLDV [Q18H] the value was 2.93; for FGIEIEVTDINDNAPKFMAENLDV [Q18M], 2.13; for FGIIIEVTDINDNAPKFQAENLDV [E4I], 1.75.
For FGIQIEVTDINDNAPKFQAENLDV [E4Q] the value was 2.47.
